# The nanobody polyreactivity screen of Harvey et al. (2022)
# Test: yeast display, Sf9 membrane polyspecificity reagent, FACS + sequencing; frameworks hold sequencing errors
# Method in brief: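 Sorting gates, low and high (top ~1%), were placed on anti-HA fluorescence to track expression and on streptavidin fluorescence to track reagent binding. A clone's polyreactivity label is taken from the gate it came out of. The reagent was 10% biotinylated, detergent-solubilized Sf9 membrane, applied for 1 hour at 4 °C to galactose-induced yeast display cells.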
row,Sequence,polyreactivity (PSR sort gate)
1,QVQLVESGGGLVQAGGSLRLSCAASGSTFLLNAMGWSRQAPGKDRELVAAITWTGGSTYYADSVKGRFTISRDNAKNTVYLQMNILKPEDTAVYYCAAETYVTSYDYWGQGTQVTVSS,low polyreactivity
2,QVQLVESGGGLVQAGGSLRLSCAASGSTFLLNAMGWYRQAPGKERELVAAITSSGGTNYADSVKGRFTISRDNAKNTVYLQMISLKPEDTAVYYCNTRYSPGYQGTEVDYWGQGTQVTVSS,low polyreactivity
3,QVQLVESGGGLVQAGGSLRLSCAASGSTFLLNAMGWYRQAPGTERELVAAITSSGGTNYADSVKGRFTISRDNAKNTVYLQMNSLKPEDTAVYYCAKDQERVTKGRFYLLEYYWGQGTQVTVSS,low polyreactivity
4,QVQLVESGGGLVQAGGSLRLSCAASGSTFLLYAMGWSRQAPGKERELVASISGDGSTNYADSVKGRFTISRDNAKNTVYLQMNSLKPEDTAVYYCARDTVHRLRISSVISNYWGQGTQVTVSS,low polyreactivity
5,QVQLVESGGGLVQAGGSLRLSCAASGSTFLPYAMGWYRQAPGKERELVAAIRWSVGSTYYADSVKGRFTISRDNAKNTVYLQMNSLIPEVTAGYYCYAVVYVVGDFDYWGQGSQVTVSS,high polyreactivity
6,QVQLVESGGGLVQAGGSLRLSCAASGSTFLQYAMGWYRQPPGKERELVAAIRFSTGTTYYADSVKGRFTISRDNAKNTVYLQMNSLKPEDTAVYYCNAVGTYRPWFHTYGYWGQGTQVTVSS,high polyreactivity
7,QVQLVESGGGLVQAGGSLRLSCAASGSTFLRNAMGWYRQAPGKERELVATITNGGSTYYADSVKGRFTISRDNAKNTVYLQMNSLKPEDTAVYYCATRSSYWSWLRYGYGYWGQGTQVTVSS,low polyreactivity
8,QVQLVESGGGLVQAGGSLRLSCAASGSTFLRNAMRWYRQAPGKERELVAAISRSGGSTYYADSVKGRFTSSRDNAKNTVYLQMNSLKPEDTAVYYCAAVVKYRYSAYGGDYCGQGTQVTVSS,high polyreactivity
9,QVQLVESGGGLVQAGGSLRLSCAASGSTFLRNDMGWYRQAPGKERELVAAITSGGITNYADSVKGRFTISRDNAKNTVSLQMNSLKPEDTAVYYCNKDSDLHHYHTEFDYWGQGTQVTVSS,low polyreactivity
10,QVQLVESGGGLVQAGGSLRLSCAASGSTFLRNVMGWYRQAPGKERELVAAISSRGGSTHYADSVKGRFTISRDNAKNTDYLQMNSLKPEDTAVYYCNAERTAAQYVRAAYDYWGQGTQVTVSS,low polyreactivity
11,QVQLVESGGGLVQAGGSLRLSCAASGSTFLSYAMGWYRQAPGKERELVAAITGSGGSTYYADSVKGRFTISRDNAKNTVYLQMNSLKPEDTAVYYCATDLWRWYGWFDYWGQGTQVTVSS,low polyreactivity
12,QVQLVESGGGLVQAGGSLRLSCAASGSTFLTNTMGWYRQAPGKERELVAIISRSSGTTYYSDSVKGRFTISRDNAKNTVYLQMNSLKPEDTAVYYCAKRYRRAYPYSKNDYWGQGTQVTVSS,high polyreactivity
13,QVQLVESGGGLVQAGGSLRLSCAASGSTFLVYAMGWYRQAPGKERELVAAIRGGGSTNYADSVKGRFTISRDNAKNTVYLQMNSLKPEDTAVYYCNADIVLSWFGSGFDYWGQGTQVTVSS,low polyreactivity
14,QVQLVESGGGLVQAGGSLRLSCAASGSTFLYNALGWYRPAPGKEREFVAAISGSGGTTYYADSVKGRFTISRDNAKNTVYLQMNSLKPEDTAVYYCAVSQSWYWYYASDYWGQGTQVTVSS,low polyreactivity
15,QVQLVESGGGLVQAGGSLRLSCAASGSTFLYNTMGWYRQAPGKERELVATITSRGDRTYYADSVKGRFTISRDIPKNNVYLQMNSLKPEDTAVYYCNAYGGNYPQSYRYYYWGQGTQVTVSS,low polyreactivity
16,QVQLVESGGGLVQAGGSLRLSCAASGSTFLYYAMGCYRQAPGKDRELVARITTRVGRTYYADSVKGRFTISRDNAKNTVYLQMNSLKPEDTAVYYCNAPYLKSRFRAYYHWGQGTQVTVAS,high polyreactivity
17,QVQLVESGGGLVQAGGSLRLSCAASGSTFLYYAMGWYRPAPGKEREFVASISGSGGSTNYADSVKGRFTISRDNAKTTVYLQLNSLKPEDTAVYYCAAGYGGWAWNHVSYGGDYWGQGTQVTVSS,low polyreactivity
18,QVQLVESGGGLVQAGGSLRLSCAASGSTFLYYAMGWYRPAPGKERELVAAISSGDSTYADSVKGRFTISRDNAKNTVYLQMNSLKPEDTAVYYCNTVLYPYWQWDYEFDYWGQGTQVTVSS,low polyreactivity
19,QVQLVESGGGLVQAGGSLRLSCAASGSTFLYYAMGWYRQAPGKERELVAAITSSGGRTYYADSVKGRFTISRDNAKNTVYLQMNSLKPEDTAVYYCARGWPRREQSEYDYWGQGTQVTVSS,high polyreactivity
20,QVQLVESGGGLVQAGGSLRLSCAASGSTFLYYAMGWYRQAPGKERELVARITTRVGRTYYADSVKGRFTISRDNAKNTVYFQMNSLKPEDTAVYYCAAYPDYSYYYWGQGTQVTVSS,high polyreactivity
21,QVQLVESGGGLVQAGGSLRLSCAASGSTFLYYAMGWYRQAPGKERELVASITRRGGRTYYADSVKGRFTISRDNAKNTVYLQMNSLKPVDTAVYYCNAVYGRQYRGYNYKFFYWGQGTQVTVSS,high polyreactivity
22,QVQLVESGGGLVQAGGSLRLSCAASGSTFLYYEMGWYRQAPGKDRELVAAISASGGSTYYADSVKGRFTISRDNAKSTVYLQMNSLKPEDTAVYYCAAVYHWVRPILYYWGQGTQVTVSS,high polyreactivity

row,Sequence,polyreactivity (PSR sort gate)
1,QVQLVESGGGLVQAGGSLRLSCAASGSTFNANAMGWYRQAPGKERELVAGISSGGSTYADSVKGRFTISRDNAKNTVYLQMNSLKPEDSAVYYCNADYYSWYPTFYWYDYWGQGSQVTVSS,high polyreactivity
2,QVQLVESGGGLVQAGGSLRLSCAASGSTFNAYAMGWYRQAPGKERELVAAISYTGGSTYYADSVKGRFTISRDNAKNTVYLQMNSLKPEDTAVYYCARRQARKFYYWGQGTQVTVSS,high polyreactivity
3,QVQLVESGGGLVQAGGSLRLSCAASGSTFNDYAMGWYRQAPGKERELVAGITWRGTSTYYADSVKGRFTISRDNAKNTVYLQRNSLKPEDTAVYYCAADVYYLLWLWMDYWGQGTQVTVSS,low polyreactivity
4,QVQLVESGGGLVQAGGSLRLSCAASGSTFNFNAMGWYRQAPGKERELVAAISSSGGSTYYADSVKGRFTISRDNAKNTVYLQMNSLKPEDTAVYYCATVLRKSPLYYYWGQGTQVTVSS,high polyreactivity
5,QVQLVESGGGLVQAGGSLRLSCAASGSTFNGYAMGWYRQAPGKERELVAAISKRGGSTYYADSVKGRFTISRDNAKNTVYLQMNSLKPEETAVYYCAARVGRTYTVVWWSHYNYWGQGTQVTVSS,high polyreactivity
6,QVQLVESGGGLVQAGGSLRLSCAASGSTFNHYAMGWYRQAPGKERELVAAITKSGGSTYADSVKGRFTISRDNAKNTVYIQMNSLKPEDTAVYYCAAGRRKYGTKGRGDYWGQGTQVTVSS,low polyreactivity
7,QVQLVESGGGLVQAGGSLRLSCAASGSTFNINVMGWYRQAPGKERELVASISTGDITYYADSVKGRFTISRDNAKNTVYLQMNSLKPEDTAVYYCAAESYTGKYSWVWKWYDYWGQGTQVTVSS,low polyreactivity
8,QVQLVESGGGLVQAGGSLRLSCAASGSTFNIYGMGWYRQAPGKERELVARISSGGSTYADSVKGRFTISRDNAKNTVYLQMNSLKPEDTAVYYCAAAAARTYRRYRYEGYYYWGQGTQVTVSS,high polyreactivity
9,QVQLVESGGGLVQAGGSLRLSCAASGSTFNKYAMGWYRPPPGKERELVAAISWTGGHTYYADSVKGRFTFSRDNAKNTVYLQMNSLKPEDTAVYYCNTVNSRPKYNYWGQGTQVTVSS,high polyreactivity
10,QVQLVESGGGLVQAGGSLRLSCAASGSTFNKYTMGWYRQAPGKERELVAAISRIGGSTYYADSVKGRFTISRDNAKNTVYLQMNSLKPEDTAVYYCAAPYPIGHDWGQGTQVTVSS,low polyreactivity
11,QVQLVESGGGLVQAGGSLRLSCAASGSTFNLYAMGWYRQAPGKERELVAAISGNGDRTYYADSVKGRFTISRDNAKNTVYLQMNSLKPEDTAVYYCAAKYYGWGQGTQVTVSS,high polyreactivity
12,QVQLVESGGGLVQAGGSLRLSCAASGSTFNNAMGWYRQAPGKERELVAAITRSGVRTYYADSVKGRFTISRDNAKNTVYLQMNSLKPEDTAVYYCAAGFQSRRYYAGYEDWGQGTQVSVSS,high polyreactivity
13,QVQLVESGGGLVQAGGSLRLSCAASGSTFNPYAMGWYRQAPGKERELLAAITWSSDDTYYADSVKGRFTISRDNAKNTVYLQMNSLKPEDTAVYYCAADVIGDLRWYGDEYWGQGTQVTESS,low polyreactivity
14,QVQLVESGGGLVQAGGSLRLSCAASGSTFNQYTMGWYRQAPGKERELVAAISKSGGSTYYADSVKGRFTISRDNAKNTVYFQMNSLKPEVTAVYYCAADRYYDYRVDYWGQGTQVTVSS,high polyreactivity
15,QVQLVESGGGLVQAGGSLRLSCAASGSTFNRNAMGWYRHAPGKERELVATISTGGVSTYYADSVKGRFTISRDNAKNTVYLQMNSLKPEDTAVYYCAKRTVYLSNLDYWGQGTQVTVSS,low polyreactivity
16,QVQLVESGGGLVQAGGSLRLSCAASGSTFNRYAMGWYRPAPGKEWELVAAISGSNGGTDYADSVKGRFTISRDNAKNTVYLQMNSLKPEDTAVYYCAKVRAYTRLGLTVSMDYWGQGTQVTVSS,high polyreactivity
17,QVQLVESGGGLVQAGGSLRLSCAASGSTFNRYAMGWYRQAPGKERELVASISWGGGRTYYADSVKGRFTISRDNAKNTVYLQMNSLKPEDSAVYYCAAGGALASQWSTKLYDYWGQGTQVTVSS,low polyreactivity
18,QVQLVESGGGLVQAGGSLRLSCAASGSTFNRYAMGWYRQAPGTERELVAAISGRGGSTYYADSVKGRFTISRDNAKNTVYLQMNSLKPEDTAVYYCAKLSYLHGTAREFRFDYWGQGTQVTVSS,high polyreactivity
19,QVQLVESGGGLVQAGGSLRLSCAASGSTFNRYAMGWYRQEPGTERELVASIRISGGSTYYADSVKGRFTISRDNAKNTVYLQMNSLKPEDTAVYYCNAKLFIRWFTYDFLGQGTQVTVSS,low polyreactivity
20,QVQLVESGGGLVQAGGSLRLSCAASGSTFNSYAMGWYRQAPGKERELVAAITSSVGSTYYADSVKGRFTISRDNAKNTVYLQMNSLKPEDTAVYYCAADYFSYWYFSGYDYWGQGTQVTVSS,low polyreactivity
21,QVQLVESGGGLVQAGGSLRLSCAASGSTFNSYAMGWYRQAPGKERELVAAITSSVGSTYYADSVKGRFTISRDNAKYTVYLQMNSLKPEDTAVYYCAADYFSYWYFSGYDYWGQGTQVTVSS,low polyreactivity
